From publication PMC9984387, “The dynamic nature of netrin-1 and the structural basis for glycosaminoglycan fragment-induced filament formation” (Nature Communications, 2023) come the findings set out here.

For the assay, the target named is Gallus gallus NET1ΔC loop cd (R374A H375A K395A H399A R400A K401A) (Gallus gallus, UniProt Q90922 26-458, R374A | H375A | K395A | H399A | R400A | K401A). Briefly: ELISA; glypican-3 coated (0.5 µg/well); soluble NET1ΔC alone (0.5–500 nM, or 500 nM pre-incubated with HO-dp20 for competition); detection with polyclonal NET1 antibody. To be noted: both partners purified.

B1: glypican-3 (AF185614 aa 25-557 R357A) (domain or fragment)
chain: QPPPPPDATCHQVRSFFQRLQPGLKWVPETPVPGSDLQVCLPKGPTCCSRKMEEKYQLTARLNMEQLLQSASMELKFLIIQNAAVFQEAFEIVVRHAKNYTNAMFKNNYPSLTPQAFEFVGEFFTDVSLYILGSDINVDDMVNELFDSLFPVIYTQMMNPGLPESVLDINECLRGARRDLKVFGSFPKLIMTQVSKSLQVTRIFLQALNLGIEVINTTDHLKFSKDCGRMLTRMWYCSYCQGLMMVKPCGGYCNVVMQGCMAGVVEIDKYWREYILSLEELVNGMYRIYDMENVLLGLFSTIHDSIQYVQKNGGKLTTTIGKLCAHSQQRQYASAYYPEDLFIDKKILKVAHVEHEETLSSRRRELIQKLKSFINFYSALPGYICSHSPVAENDTLCWNGQELVERYSQKAARNGMKNQFNLHELKMKGPEPVVSQIIDKLKHINQLLRTMSVPKGKVLDKSLDEEGLESGDCGDDEDECIGSSGDGMVKVKNQLRFLAELAYDLDVDDAPGNKQHGNQKDNEITTSHSVGNM
modifications: three extended GAG chains are attached to the core protein
notes: Glypican-3, AF185614 aa 25-557; Heparan sulphate proteoglycan; also called GPC3; source: HEK 293 (sleeping beauty transposon system, BM40 signal peptide), purified (Strep-Tactin)
For the molecule B1, the binding result is “binds”.
